Consider four molecules from PMC5797236, “The odd one out: Arabidopsis reticulon 20 does not bend ER membranes but has a role in lipid regulation” (Scientific Reports, 2018).

T1: GFP-RTN20 (Arabidopsis reticulon 20) (Arabidopsis thaliana, UniProt A9X4U2 1-561)
T1 construct: Reticulon 20 (RTN20), Arabidopsis thaliana, locus At2g43420; FRET donor; the methods name Gateway vectors for N- or C-terminal GFP without saying which was used for each gene; also called RTNLB20; source: tobacco (Nicotiana tabacum) leaf epidermal cells, Agrobacterium-mediated transient expression, in living cells; not shown: GFP, N-terminal, kept
T1 sequence (looked up): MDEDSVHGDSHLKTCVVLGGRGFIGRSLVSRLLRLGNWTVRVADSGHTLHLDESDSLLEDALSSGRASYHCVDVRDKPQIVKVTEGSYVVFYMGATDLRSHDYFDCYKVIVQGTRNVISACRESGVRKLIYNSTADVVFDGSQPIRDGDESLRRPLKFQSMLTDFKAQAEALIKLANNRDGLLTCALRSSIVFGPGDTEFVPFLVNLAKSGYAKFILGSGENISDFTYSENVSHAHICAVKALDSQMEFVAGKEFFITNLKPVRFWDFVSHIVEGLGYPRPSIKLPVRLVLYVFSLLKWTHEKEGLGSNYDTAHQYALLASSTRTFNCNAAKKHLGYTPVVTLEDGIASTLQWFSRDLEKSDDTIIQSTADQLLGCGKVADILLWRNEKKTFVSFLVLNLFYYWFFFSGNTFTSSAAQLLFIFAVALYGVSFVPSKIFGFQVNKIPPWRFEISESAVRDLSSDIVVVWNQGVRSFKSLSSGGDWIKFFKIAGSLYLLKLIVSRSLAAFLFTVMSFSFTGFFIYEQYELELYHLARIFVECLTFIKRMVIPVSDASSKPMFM

B1: RTN2 fused to mRFP (Arabidopsis reticulon 2) (natural protein, Arabidopsis thaliana, UniProt Q9SUT9 1-271, looked up)
chain: MADEHKHEESSPNLDPAVEVVERESLMEKLSEKIHHKGDSSSSSSSDDENEKKSSSSSPKSLKSKVYRLFGRERPVHKVLGGGKPADIFMWKDKKMSGGVFGGATVAWVLFELMEYHLLTLLCHVMIVALAVLFLWSNATMFIHKSPPKIPEVHIPEEPLLQLASGLRIEINRGISSLREIASGRDIKKFLSAIAGLWVLSILGGCYSFLTLAYIALVLLFTVPLFYDKYEDKVDSYGEKAMAELKKQYAVLDAKVFSKIPRGPLKDKKKD
notes: Reticulon 2 (RTN2), Arabidopsis thaliana, locus AT4G11220; FRET acceptor; also called RTNLB2; source: tobacco (Nicotiana tabacum) leaf epidermal cells, Agrobacterium-mediated transient expression, in living cells
B2: mRFP-RTN1 (Arabidopsis reticulon 1) (natural protein, Arabidopsis thaliana, UniProt Q9SUR3 1-275, looked up)
chain: MAEEHKHDESVIAPEPAVEVVERESLMDKISEKIHHGGDSSSSSSSSDDEDEKKKTKKPSSPSSSMKSKVYRLFGREQPVHKVLGGGKPADIFMWKNKKMSGGVLGGATAAWVVFELMEYHLLTLLCHVMIVVLAVLFLWSNATMFINKSPPKIPEVHIPEEPILQLASGLRIEINRGFSSLREIASGRDLKKFLIAIAGLWVLSILGGCFNFLTLAYIALVLLFTVPLAYDKYEDKVDPLGEKAMIELKKQYAVLDEKVLSKIPLGPLKNKKKD
notes: Reticulon 1 (RTN1), Arabidopsis thaliana, locus AT4G23630; FRET acceptor; also called RTNLB1; source: tobacco (Nicotiana tabacum) leaf epidermal cells, Agrobacterium-mediated transient expression, in living cells; not shown: mRFP, N-terminal, kept
B3: RTN3 fused to mRFP (Arabidopsis reticulon 3) (natural protein, Arabidopsis thaliana, UniProt Q9SH59 1-255, looked up)
chain: MAEEHKHEESIMEKISEKIHGHDDSSSSSSDSDDDKNSASLKTKIYRLFGREQPLHKLFGGGKPADIFLWRNKKVSGGVLGAATVSWILFELLEYNLLTLFGHISILALAVLFLWSSASTFIHKSPLHIPEVHIPEDVVLQLASGLRIEINRGFTVLRDIASGRDLKKFLLVIAGLWVLSKVGSSCNFLTLIYIATVLLFTIPVLYEKYEDKVDDFGEKAMREIKKQYVEFDVKVLSKVMSKIPKGAFAFIKKKD
notes: Reticulon 3 (RTN3), Arabidopsis thaliana, locus AT1G64090; FRET acceptor; also called RTNLB3; source: tobacco (Nicotiana tabacum) leaf epidermal cells, Agrobacterium-mediated transient expression, in living cells
B4: RTN19 fused to mRFP (Arabidopsis reticulon 19, 3BETAHSD/D2) (natural protein, Arabidopsis thaliana, UniProt Q67ZE1 1-564, looked up)
chain: MSPAATETERWCVVTGGRGFAARHLVEMLVRYEMFCVRIADLAPAIMLDPQEGNGVLDEGLRSGRVQYISADLRDKSQVVKAFQGAEVVFHMAAPDSSINNHQLQYSVNVQGTQNVIDACVDVGVKRLIYTSSPSVVFDGVHGILNGTESMAYPIKHNDSYSATKAEGEELIMKANGRNGLLTCCIRPSSIFGPGDRLLVPSLVAAARAGKSKFIIGDGNNLYDFTYVENVAHAHVCAERALASGGDVSTKAAGQAYFITNMEPIKFWEFMSQLLDGLGYERPSIKIPAFIMMPIAHLVELTYKVLGPYGMTVPQLTPSRVRLLSCSRTFDSTKAKDRLGYAPVVPLQEGIRRTIDSFSHLTAGSQSKREGPSKASRILGGGKVADTLLWKDLKQTLIAIFILISIYYNFVATGSTVVTALSKALLVASVFLFLHGILPEKIFGYTVEKIPASQFHLSKDSSHDLSLSVISSWNTTVKALRSLCQGNDWSFFFKVVFVLLALSLAGAISLHSIFVIGLPIAFLAFLVYEKKEQEIDSIVVSFKSFACKHKSDVYEKLFGSKKHD
notes: Reticulon 19 (RTN19, 3beta-hydroxysteroid dehydrogenase/C-4 decarboxylase isoform 2), Arabidopsis thaliana, locus At2g26260; FRET acceptor; also called RTNLB19; source: tobacco (Nicotiana tabacum) leaf epidermal cells, Agrobacterium-mediated transient expression, in living cells

The target in this experiment is T1, GFP-RTN20 (Arabidopsis reticulon 20). Nature of the experiment: FRET or BRET; FRET-FLIM in living tobacco leaf epidermal cells; GFP-RTN20 as donor, mRFP fusions as acceptors, transiently co-expressed; two-photon excitation at 920 nm; lifetimes measured at the ER associated with the nuclear envelope; donor alone 2.4 ± 0.03 ns. The settings on record: partners not purified. In general terms: In BRET a luciferase serves as donor, and the signal depends on an acceptor being close.
On to B1, for which the “GFP donor fluorescence lifetime (FRET-FLIM)” value was 2.2 ns. The value for B2 was 2.21 ± 0.02 ns; that for B3 was 2.2 ns; that for B4 was 2.2 ns.
